Tests used:
[1] = system: ATDC5 cells; assay: Purified recombinant mouse asporin on TGF-β1-stimulated aggrecan and type II collagen gene expression in ATDC5; assay type: cell-based; conditions: TGF-β1 10 ng/ml, 18 hours, corrected by GAPDH
Experimental: ATDC5 cells were inoculated to a 12-well plate at […], and cultured in a medium 1-2 (a DMEM/F12 medium containing 5% FBS, ITS (Sigma), penicillin (100 U/ml) and streptomycin (100 μg/ml)) for 2 days. Purified mouse asporin diluted with a medium 1-2 containing 0.2% FBS was added to the cells, and the cells were further cultured for 12 hours, after which TGF-β1 (10 ng/ml) was added, and the cells were further cultured for 18 hours, after which total RNA extraction, purification, cDNA synthesis, and real-time PCR were performed in the same manner as Example 18. At this time, the expression levels of the aggrecan and type II collagen genes were corrected by the expression level of the […] (GAPDH) gene.

[2] = molecular target: bFGF (Homo sapiens, UniProt P09038); assay: Binding assay of mouse asporin and bFGF by microplate assay method; conditions: bFGF-coated plate, OD405
Experimental: (§1) A binding assay was performed using the method described in Example 24 with a partial modification as described below. To a Maxisorp 96-well microplate of Nunc, a 1 μg/ml TGF-β1 solution prepared with 0.05M sodium carbonate buffer (pH 9.6) was dispensed at 100 μl/well, and the microplate was coated with TGF-β1 at 4° C. overnight. The TGF-β-coated wells were blocked in 200 μl/well of Block Ace at 37° C. for 3 hours. Next, mouse asporin and biotinylated mouse asporin, diluted with Block Ace, were added to obtain a total volume of 100 μl per well, and the microplate was incubated at 4° C. overnight. The wells were washed with […] of TBST three times, after which streptavidin-alkaline phosphatase (Novagen) diluted 1000 fold with TBST was added at […], and the microplate was incubated at room temperature for 1 hour. The wells were washed with 400 μl/well of TBST five times, and then colored using an alkaline phosphatase substrate kit (BIO-RAD), and the absorbance at 405 nm was measured using Ultramark Microplate Imaging System (BIO-RAD).
A binding assay was performed in the same manner as Example 34 except that the microplate was coated with bFGF solution in place of 1 μg/ml TGF-β1.

[3] = system: ATDC5 cells; assay: bFGF-stimulated BrdU uptake in ATDC5 cells; assay type: cell-based, mouse; conditions: serum-free DMEM/F12, 20 hours
Experimental: When ATDC5 cells inoculated in the same manner as Example 40 became subconfluent, the cells were twice washed with serum-free DMEM/F12, serum-free DMEM/F12 was added at 1 ml/well, and the cells were cultured for 24 to 48 hours. Asporin and bFGF were added thereto, and the cells were further cultured for 20 hours, after which BrdU uptake assay was performed using Cell Proliferation ELISA, BrdU (Roche) by the protocol modified for 12-well plate assay as described below. Specifically, BrdU was added to the cells to obtain a final concentration of 1 μM, and the cells were cultured at 37° C. for 4 hours, after which the culture broth was removed by suction, and a fixative solution (FixDenat) was added at 1 ml/well, after which the plate was allowed to stand at room temperature for 30 minutes. The fixative solution was removed by suction, BrdU antibody-HRP (×1000) was added at 0.5 ml/well, and the plate was allowed to stand at room temperature for 1 hour, washed with TBST four times, a substrate solution was added at 0.3 ml/well to proceed the reaction at room temperature for 30 minutes until sufficient color development occurred. 1 M phosphoric acid was added at 0.3 ml/well to step the reaction, transferred to a 96-well plate, and OD415 was measured using a plate reader.

[4] = system: normal human articular chondrocytes of knee joint (NHAC); assay: Purified recombinant mouse asporin on TGF-β-stimulated gene expression in NHAC; assay type: cell-based
Experimental: NHAC purchased from Cambrex Company was cultured in the growth medium attached to the kit (chondrocyte growth medium, CGM) in a 10-cm petri dish, after which the cells were scraped with 0.05% Trypsin/EDTA, and inoculated to a 12-well plate at 10^5 cells/well; on the following day, the medium was exchanged with DMEM/F12+0.2% FBS; 5 hours later, asporin was added. After the cells were further cultured for 12 hours, TGF-β1 (40 ng/ml) was added; from the cells cultured for 48 hours, total RNA preparation, cDNA synthesis, and real-time PCR were performed according to the methods described in Example 12.
Using a cDNA prepared by the method described in Example 35, the expression of the asporin and TGF-β1 genes was examined by real-time PCR. […] From this, it was shown that asporin negatively regulated the expression of both the asporin and TGF-β1 genes in the presence of TGF-β1.

[5] = system: NHAC; assay: MTT assay of TGF-β1-stimulated cell growth in NHAC; assay type: cell-based, human; conditions: TGF-β1 40 ng/ml with asporin 5 or 20 μg/ml, 5 days
Experimental: NHAC was inculated to a 12-well plate at 1×10^5 cells/well, and cultured in a DMEM/F12 containing 10% FBS supplemented with TGF-β1 (40 ng/ml) and asporin (5 or 20 μg/ml) for 5 days, after which the degree of cell growth was examined by the MTT assay method described below. Specifically, 3-(4,5-dimethyl-2-thiazolyl)-2,5-diphenyl-2H-tetrazolium bromide (MTT, Dojindo Laboratory) was dissolved in DMEM/F12 to obtain a concentration of 1 mg/ml, the solution was added to the cells after the medium was removed by suction, and the cells were cultured at 37° C. for 1 hour. Thereafter the medium containing MTT was discarded, and the cells were subjected to extraction treatment using a Lysis reagent (86% isopropanol, 40 mM hydrochloric acid, 1% SDS). This cell lysate was transferred to a 96-well plate, and the absorbance at 550 nm was measured using a microplate reader.

[6] = system: Smad2 phosphorylation in NHAC; assay: Smad2 phosphorylation by TGF-β1 in NHAC (Western blotting); assay type: cell-based, human; conditions: asporin 20 μg/ml, TGF-β1 40 ng/ml, 10 minutes
Experimental: NHAC was inoculated to a 12-well plate, and cultured in a DMEM/F12 containing 10% FBS and penicillin/streptomycin; when the cells became nearly confluent, the medium was exchanged with the same medium containing 0.2% serum. 12 hours later, asporin (20 μg/ml) was added; still 12 hours later, TGF-β1 (40 ng/ml) was added; 10 minutes later, the cells were lysed with the M-PER reagent (PIERCE). SDA-PAGE was performed using this cell extract, and Western blotting was performed according to the protocol attached to an antibody product of Cell Signaling Company. As the primary antibodies for detection of phosphorylated Smad2 and Smad2 protein, Phospho-Smad2 antibody (Cell Signaling) and rabbit anti-Smad2 (Zymed Laboratories) were used, respectively. As the […], anti-rabbit IgG-HRP (Cell Signaling) was used.

[7] = molecular target: TGF-β1 (Homo sapiens, UniProt P01137); assay: Binding assay of purified recombinant mouse asporin and TGF-β by microplate assay method; conditions: biotinylated mouse asporin, TGF-β1-coated plate, OD405
Experimental: as §1

TGF-β1, sequence (P01137 279-390 limits assumed, species assumed): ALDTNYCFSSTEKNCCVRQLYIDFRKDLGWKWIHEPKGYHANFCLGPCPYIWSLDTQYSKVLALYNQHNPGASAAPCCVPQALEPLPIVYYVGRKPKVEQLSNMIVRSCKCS
bFGF, sequence (P09038 134-288 limits assumed, species assumed): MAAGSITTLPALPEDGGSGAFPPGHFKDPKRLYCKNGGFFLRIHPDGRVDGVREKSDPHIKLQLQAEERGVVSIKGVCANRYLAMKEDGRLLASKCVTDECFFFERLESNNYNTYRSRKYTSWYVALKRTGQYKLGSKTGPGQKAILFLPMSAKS

B1: purified mouse asporin: recombinant mouse asporin expressed in Escherichia coli, refolded from insoluble fraction and purified by gel filtration (protein)
chain: DMEDTDDDDNDDDDNSLFPTKEPVNPFFPFDLFPTCPFGCQCYSRVVHCSDLGLTSVPNNIPFDTRMVDLQNNKIKEIKENDFKGLTSLYALILNNNKLTKIHPKTFLTTKKLRRLYLSHNQLSEIPLNLPKSLAELRIHDNKVKKIQKDTFKGMNALHVLEMSANPLENNGIEPGAFEGVTVFHIRIAEAKLTSIPKGLPPTLLELHLDFNKISTVELEDLKRYRELQRLGLGNNRITDIENGTFANIPRVREIHLEHNKLKKIPSGLQELKYLQIIFLHYNSIAKVGVNDFCPTVPKMKKSLYSAISLFNNPMKYWEIQPATFRCVLGRMSVQLGNVGK
modifications: left off: small tags and cut ends
[1]
  suppression of the TGF-β1-stimulated expression of the aggrecan and type II collagen genes: observed depending on the amount of purified mouse asporin added
[2]
  binding to bFGF (microplate): bound to bFGF concentration-dependently and specifically
[3]
  BrdU uptake in the absence of bFGF: did not change BrdU uptake
  BrdU uptake in the presence of bFGF: further enhance the increase in BrdU uptake
[4]; NHAC, cDNA of Example 35
  TGF-β1-stimulated increases in expression of the asporin and TGF-β1 genes: both suppressed
[4]; TGF-β1 40 ng/ml, 48 hours
  TGF-β1-stimulated expression of the type II collagen and aggrecan genes: suppressed the TGF-β1-stimulated expression of the type II collagen and aggrecan genes in NHAC concentration-dependently
[5]
  cell growth of NHAC (MTT, absorbance at 550 nm): suppressed concentration-dependently
[6]
  Smad2 phosphorylation by TGF-β1 stimulation: suppressed the Smad2 phosphorylation by TGF-β1 stimulation
[7]
  binding to TGF-β1 (microplate): bound to TGF-β1 concentration-dependently and specifically

Source: patent US20090075921A1, “Bone/joint disease sensitivity gene and use thereof” (Riken, priority 2004, published 2009)
